Source: patent publication US20250145716A1 (RAKUTEN MEDICAL, published 2025)
Substitutions are numbered along the chain they refer to. In names and notes the source's numbering stands. Blank lines part the entries; values can stand above or below the binder they belong to.

Experiments:
6xHis-tagged huPD-L1 [1] = target: T1, 6xHis-tagged huPD-L1 (human, UniProt Q9NZQ7 19-238); assay: ELISA, plate-coated 6xHis huPD-L1, A450
T1 construct: also called human PD-L1 (RD Systems 9049-B7); extracellular domain of human PD-L1 fused to a His tag; not shown: 6xHis tag
Experimental: (§1) Hybridoma supernatants were tested for binding to huPD-L1, cyPD-L1, and muPD-L1 by ELISA. Briefly, 30 μL 6xHis-tagged huPD-L1, cyPD-L1, or muPD-L1 (1 μg/mL in PBS) were immobilized in wells of a 96-well assay plate overnight at 4° C. After washing and blocking steps, 30 μL of antibody supernatant were added to the plate and incubated at room temperature for 1 hr. Bound human antibody was detected using horseradish peroxidase (HRP)-conjugated goat anti-human Fc (Invitrogen Cat. No. 109-035-097; diluted 1:5000) or goat anti-mouse Fc HRP (Invitrogen Cat. No. 115-035-071) as a control. Bound antibody was detected with 1-Step Ultra™ TMB-ELISA Substrate (ThermoFisher Scientific Cat. No. 34029). When the reaction was complete the reaction was stopped, and the plate was read at 450 nm.
(§2) Anti-PD-L1 antibodies, described in Example 1A and manufactured substantially as described in Example 1B, were tested for to huPD-L1 and cyPD-L1 by ELISA substantially as described in Example 1A, using 12 dilutions of antibody ranging from 1 ng/ml to 3 mg/mL.

6xHis-tagged cyPD-L1 [2] = target: T2, 6xHis-tagged cyPD-L1 (cynomolgus monkey, UniProt Q9NZQ7 19-238 (human entry)); assay: ELISA, plate-coated 6xHis cyPD-L1, A450
T2 construct: The assay text says only '6xHis-tagged cyPD-L1'; also called cynomolgus PD-L1; not shown: 6xHis tag
Experimental: as §1, §2

[3] = target: T3, human PD-L1 expressed on cells (human, UniProt Q9NZQ7 19-290); assay: cell-based or functional assay
[4] = target: T3, human PD-L1 expressed on cells; assay: cell-based or functional assay; remark: listed apart in the source
6xHis-tagged huPD-L1 [5] = target: T1, 6xHis-tagged huPD-L1; assay: ELISA, plate-coated 6xHis huPD-L1, OD 450 nm
Experimental: as §1

6xHis-tagged cyPD-L1 [6] = target: T2, 6xHis-tagged cyPD-L1; assay: ELISA, plate-coated 6xHis cyPD-L1, OD 450 nm
Experimental: as §1

[7] = target: T3, human PD-L1 expressed on cells; assay: flow cytometry, PD-L1-expressing CHO cells, MFI (FITC)
Experimental: Wild-type (wt) Chinese hamster ovary (CHO) cells (ATCC) and CHO cells engineered to express huPD-L1 (BPS Bioscience) were seeded at 200,000 cells in 50 μL FACS buffer (PBS containing 1% FBS and 5 mM EDTA) per well of a 96-well plate. Cell viability was assessed by adding 50 μL 2×Zombie Violet (BioLegend). Dead cell controls were also prepared and 2×Zombie violet was added. After incubating 20-30 minutes at room temperature, protected from light, 150 μL FACS buffer were added to each well. The plates were centrifuged, and the supernatant was aspirated. […] The plates were incubated 30 minutes on ice, protected from light. 150 μL FACS buffer were then added to each well and the plate was centrifuged. The supernatant was removed and the cells were washed three times in 200 μL FACS buffer. […] The cells were incubated 30 minutes on ice, protected from light. 150 μL FACS buffer were then added to each well and the plate was centrifuged. Supernatant was removed and the cells were washed twice with 200 μL FACS buffer. The cells were then resuspended in FACS buffer and analyzed by CytoFLEX using the appropriate channels. After gating for whole, single, live cells, the MFI in the APC channel (or FITC channel for human control samples) was normalized to the signal from hybridoma media alone (or isotype control for human control). MFI fold over media alone was determined for each clone supernatant tested.

[8] = target: T4, PD-L1-His (Acro Cat PDL-H5229) (human, UniProt Q9NZQ7 19-238); assay: SPR (Biacore 4000) as in Example 3, conjugate captured, PD-L1-His analyte, 25° C.
T4 construct: also called human PD-L1 (SPR analyte); not shown: His tag
Experimental: (§3) The binding affinities of the generated antibodies to human PD-L1 were determined by surface plasmon resonance. […] PD-L1-His (Acro Cat PDL-H5229) was tested for binding in a 3-fold titration series up to 100 nM. Data were collected in HBS-P (pH 7.4) at 37° C. and 25° C.
(§4) The binding affinities of the generated anti-PD-L1 conjugates were determined by surface plasmon resonance, as described in Example 3.

[9] = target: T4, PD-L1-His (Acro Cat PDL-H5229); assay: SPR (Biacore 4000) as in Example 3, conjugate captured, PD-L1-His analyte, 37° C.
Experimental: as §3, §4

T3 sequence (Q9NZQ7 19-290): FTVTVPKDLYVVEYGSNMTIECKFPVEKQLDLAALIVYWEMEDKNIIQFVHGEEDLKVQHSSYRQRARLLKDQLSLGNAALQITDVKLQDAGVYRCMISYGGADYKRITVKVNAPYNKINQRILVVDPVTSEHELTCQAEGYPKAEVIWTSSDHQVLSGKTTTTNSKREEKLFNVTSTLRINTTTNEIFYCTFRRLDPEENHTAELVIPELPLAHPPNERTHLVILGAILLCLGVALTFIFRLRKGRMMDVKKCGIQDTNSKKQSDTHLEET
T4 sequence (Q9NZQ7 19-238 limits assumed): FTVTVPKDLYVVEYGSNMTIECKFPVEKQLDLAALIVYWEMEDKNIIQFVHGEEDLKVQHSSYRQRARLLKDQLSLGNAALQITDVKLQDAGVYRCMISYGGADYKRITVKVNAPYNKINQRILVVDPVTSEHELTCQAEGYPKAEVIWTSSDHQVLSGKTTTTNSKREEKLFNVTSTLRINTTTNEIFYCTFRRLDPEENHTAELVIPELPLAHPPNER
T1 sequence (Q9NZQ7 19-238): as the sequence (Q9NZQ7 19-238 limits assumed) above
T2 sequence (Q9NZQ7 other isoform, or with tags, fused parts or gaps): as the sequence (Q9NZQ7 19-238 limits assumed) above, with A33T, A34S, S62N, R68Q, Q82R, F173L, T185A, T192I, H215L counted along it

- Absolute IC50 (6xHis-tagged huPD-L1 [1]): 0.0498 µg/mL
- Absolute IC50 (6xHis-tagged cyPD-L1 [2]): 0.0569 µg/mL
B5: 3B1 (antibody, V domains shown)
VH: QIQLVQSGPELKKPGETVKISCKASGYDFTNYGMNWVKQAPGKGLKWMGYINTYTGEPAYADDFKGRFAFSLETSARTAYLRINNLKNEDTATYFCATRAYYGHYLAYWGQGTLVTVSA
VL: DVLMTQTPLSLPVSLGDQASISCRSSQRIVHSNGNTYLEWYLQKPGQSPKLLIYKVSNRFSGVPDRFSGSGSGTDFTLKISRVEAEDLGVYYCFQGSHVPYTFGGGTKLEIK

- binding result (6xHis-tagged huPD-L1 [1]): binds
- Absolute IC50 (6xHis-tagged cyPD-L1 [2]): 0.325 µg/mL
B6: 3B5 (antibody, V domains shown)
VH: B5 VH
VL: QIVLTQSPAIMSASPGEKVTITCSASSSVSYMHWFQQKPGTSPKLWIYSTSNLASGVPARFSGSGSGTSYSLTISRMEAEDAATYYCQQRSSYPFTFGSGTKLEIK

- Absolute IC50 (6xHis-tagged huPD-L1 [1]): 0.225 µg/mL
- Absolute IC50 (6xHis-tagged cyPD-L1 [2]): 0.341 µg/mL
B7: 3B2 (antibody, V domains shown)
VH: EVQLQESGPSLVKPSQTLSLTCSVTGDSITSGYWNWIRKFPGNKLEYMGYISYTGSTYYNPSLKSRISITRDTSKNQYYLQLDSVTTEDTATYYCARKGGWLLPFAYWGQGTLVTVSA
VL: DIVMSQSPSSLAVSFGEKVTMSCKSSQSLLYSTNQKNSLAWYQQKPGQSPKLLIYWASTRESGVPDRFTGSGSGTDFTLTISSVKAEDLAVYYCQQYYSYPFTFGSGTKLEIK

- Absolute IC50 (6xHis-tagged huPD-L1 [1]): 0.152 µg/mL
- Absolute IC50 (6xHis-tagged cyPD-L1 [2]): 0.106 µg/mL
B8: 3B4 (antibody, V domains shown)
VH: B7 VH with Y47S, I67L, Y78F, D83N, R97S, K98G, G99L, G100L, L103A, P104W
VL: DIVMSQSPSSLAVSVGEKVTMSCKSSQSLLYSSNQKNSLAWYQQKPGQSPKLLIYWASTRESGVPDRFTGSGSGTDFTLTISSVRAEDLAVYYCQQYYGYPFTFGGGTKLEIK

- Absolute IC50 (6xHis-tagged huPD-L1 [1]): 0.33 µg/mL
- Absolute IC50 (6xHis-tagged cyPD-L1 [2]): 0.246 µg/mL
B14: 3B6 (antibody, V domains shown)
VH: EVKLVESGGGLVQPGGSLRLSCGTSGFTFSDFYVEWVRQPPGKRLEWIAASRNKVNDYTTEYSESVKGRFIVSRDTSQNILYLQMNALRAEDSAIYYCARNVPWDGWYFDVWGAGTAVTVSS
VL: DIVMTQSQKFMSTSVGDRVSITCKASQNVRTAVAWFQQKPGQSPKALIYLASTRHTGVPDRFTGSGSGTDFTLTISNVQSEDLADYFCLQHWNYPRTFGGGTKLEIK

The remaining lines, values behind:

B1: 2M5 (antibody, V domains shown)
VH: EVQLVESGGGLVKPGGSLRVSCAASGFTLSSYSMNWVRQAPGKGLEWVSSISSSSSYIYYADSVKGRFTISRDNAKNLLYLQMNSLRAEDTAVYYCAREGGAARPSWFDPWGQGTLVTVSS
VL: QAVVTQESALTTSPGETVTLTCRSSTGAVTTSNYANWVQEKPDHLFTGLIGGTNNRAPGVPARFSGSLIGDKAALTITGAQTEDEAIYFCALWYRNHWVFGGGTKLTVL
- Absolute IC50 (6xHis-tagged huPD-L1 [1]): 0.788 µg/mL
- Absolute IC50 (6xHis-tagged cyPD-L1 [2]): 0.234 µg/mL

B2: 1P4-IR700 (antibody, V domains shown)
VH: QVQLVESGGGVVQPGRSLRLSCAASGFTFSNYGMHWVRQAPGKGLEWVSLILYDGSNKYYADSVKGRFTISRDNSKNTLYLQMNSLRAEDTAVYYCARDRVWLDVWGKGTTVTVSS
VL: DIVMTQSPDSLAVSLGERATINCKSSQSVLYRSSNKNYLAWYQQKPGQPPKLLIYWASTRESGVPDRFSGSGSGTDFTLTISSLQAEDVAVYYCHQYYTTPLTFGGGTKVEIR
modifications: IRDye 700DX (IR700) attached via NHS ester; sites not stated; IRDye 700DX (IR700) attached via NHS ester; sites not stated; DAR 2.9 per antibody
notes: also called 1P4-IR700 conjugate; anti-PD-L1-IR700 conjugate
- EC50 of photoimmunotherapy-induced killing of A431 cells (Cell Tox Green, 128 J/cm^2) [3]: 0.103 µg/mL
- EC50 of luminescence (RLU), PD-1:PD-L1 Blockade Bioassay (PD-L1 aAPC/CHO-K1 cells with PD-1 Effector Jurkat NFAT-luciferase cells) [4]: 0.855 µg/mL
- EC50 (6xHis-tagged huPD-L1 [5]): 0.189 µg/mL
- EC50 (6xHis-tagged cyPD-L1 [6]): 0.193 µg/mL
- EC50 [7]: 0.133 µg/mL
- Kd [8]: 16 nM
- koff [8]: 0.0056 s⁻¹
- kon [8]: 350000 M⁻¹ s⁻¹
- Kd [9]: 23 nM
- koff [9]: 0.011 s⁻¹
- kon [9]: 470000 M⁻¹ s⁻¹

B3: 1P4 with effector knockout (EKO) mutations L234F/L235E/P331S (antibody, V domains shown)
VH: B2 VH
VL: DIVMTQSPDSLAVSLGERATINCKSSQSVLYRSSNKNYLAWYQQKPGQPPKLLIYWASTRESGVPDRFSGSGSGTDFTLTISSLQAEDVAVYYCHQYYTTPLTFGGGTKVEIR
notes: Same variable regions as 1P4; also called 1P4-EKO; 1P4 (L234F/L235E/P331S)
- EC50 [7]: 0.0455 µg/mL

B4: 1P4-EKO-IR700 conjugate (antibody, V domains shown)
VH: B2 VH
VL: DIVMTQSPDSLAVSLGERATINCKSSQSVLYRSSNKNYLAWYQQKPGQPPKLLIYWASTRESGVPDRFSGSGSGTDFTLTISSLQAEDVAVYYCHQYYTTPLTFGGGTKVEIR
modifications: IRDye 700DX (IR700) attached via NHS ester; sites not stated; IRDye 700DX (IR700) attached via NHS ester; sites not stated; DAR 2.7 per antibody
notes: also called 1P4-EKO (conjugate); anti-PD-L1-IR700 conjugate with effector knock-out Fc region
- EC50 [7]: 0.145 µg/mL

B9: 2M1 (antibody, V domains shown)
VH: EVQLVESGGGLVKPGGSLRLSCAASGFTFSSYTMNWVRQAPGKGLEWVSSITSSTSYIYYADSVKGRFTISRDNAKNSLYLQMNSLRAEDTSVYYCVRDWSIAARGAWFDPWGQGTLVTVSS
VL: DIQMTQSPSSVSASVGDRVTITCRASQGIGSWLAWYQQKPGKAPKFLIYAASSLQGGVPSRFSGSGSGTDFTLTISSLQPEDFATYYCQQANSFPLTFGGGTKVEIK
- Absolute IC50 (6xHis-tagged huPD-L1 [1]): 0.428 µg/mL
- Absolute IC50 (6xHis-tagged cyPD-L1 [2]): 0.559 µg/mL

B10: 1P9-EKO-IR700 conjugate (antibody, V domains shown)
VH: EVQLVESGGGLVQPGGSLRLSCAASGFTFSTYWMSWVRQAPGKGLEWVANIKQDGGERYYVDSVKGRFTISRDNAKSSLYLQMNSLRAEDTALYYCARLRLYSDYEDYWGQGTLVTVSS
VL: B9 VL with G30S, F46L, A50S, A51V, G56S, F83S, F94L, L96P
modifications: IRDye 700DX (IR700) attached via NHS ester; sites not stated; IRDye 700DX (IR700) attached via NHS ester; sites not stated; DAR 2.5 per antibody
notes: also called 1P9-EKO (conjugate); anti-PD-L1-IR700 conjugate with effector knock-out Fc region
- EC50 [7]: 0.0174 µg/mL

B11: 2M3 (antibody, V domains shown)
VH: EVQLVESGGGFVQTGGSLRLSCAASGFNFRSYDMHWVRQVIGKGLEWVSGIGPGGDTYYPGSVKGRFTISRENAKNSLYLQMNSLRAGDTAVYYCAREQFEGHYFDYWGQGTLVTVSS
VL: B9 VL with T20N, G30S, G41W, F46L, A50T, G56S, L96I, G100Q, K103R, V104L
- Absolute IC50 (6xHis-tagged huPD-L1 [1]): 0.788 µg/mL
- Absolute IC50 (6xHis-tagged cyPD-L1 [2]): 0.672 µg/mL

B12: 1P9 with effector knockout mutations L234F/L235E/P331S (antibody, V domains shown)
VH: B10 VH
VL: B9 VL with G30S, F46L, A50S, A51V, G56S, F83S, F94L, L96P
notes: Same variable regions as 1P9; also called 1P9-EKO; 1P9 (L234F/L235E/P331S)
- EC50 [7]: 0.0186 µg/mL

B13: 2M2 (antibody, V domains shown)
VH: QVQLVQSGAEVKKPGASVKVSCKASGYTFTNYGISWVRQAPGQGLEWMGWISAYNGHTNYAQKVQGRVTMTTDTSTSTAFMELRSLRSDDSAVYYCARGTSGDYWGQGTLVTVSS
VL: not shown
- Absolute IC50 (6xHis-tagged huPD-L1 [1]): 0.0838 µg/mL
- Absolute IC50 (6xHis-tagged cyPD-L1 [2]): 0.167 µg/mL
